Measurements: article PMC9631961

Target: Vsg-GFP fusion protein (D. melanogaster Vsg, transiently expressed in U2OS cells) (Drosophila melanogaster)
Assay: immunostaining of cells or tissue

Question: With “TcdA1 (TcA subunit of the Photorhabdus luminescens Tc toxin pTc) (from UniProt Q9RN43 1-2516) (natural protein)” as the substance, how does the percent of TcdA1-bound cells that are GFP positive read?
Answer: The percent of TcdA1-bound cells that are GFP positive was 96%.
